Tests used:
[1] = target: the molecule itself; assay: gel filtration HPLC and analytical ultracentrifugation (main population 310±10 kDa)
Experimental: FIG. 11. rGPBP and rGPBPΔ26 form very active high molecular weight aggregates. About 300 μg of rGPBP (A) or rGPBPΔ26 (B) were subjected to gel filtration HPLC as described under Material and Methods. Vertical arrowheads and numbers respectively indicate the elution profile and molecular mass (kDa) of the molecular weight standards used. Larger aggregates eluted in the void volume (I), and the bulk of the material present in the samples eluted in the fractionation range of the column as a second peak between the 669 and 158 kDa markers (II). Fifteen microliters of the indicated minute fractions were subjected to SDS-PAGE and Coomasie blue staining. Five microliters of the same fractions were in vitro phosphorylated as described in Materials and Methods, and the reaction stopped by boiling in SDS sample buffer. […]
Gel-filtration HPLC. […] The material was eluted from the column at 0.5 ml/min, monitored at 220 nm and minute fractions collected.
rGPBP and rGPBP-26 exist as very active high molecular weight aggregates. Gel filtration analysis of affinity-purified rGPBP or rGPBPΔ26 yielded two chromatographic peaks (I and II), both displaying higher MW than expected for the individual molecular species, as determined by SDS-PAGE studies (89 kDa and 84 kDa, respectively ) (FIG. 11). […] ATP, and analyzed by immunoblot and autoradiography.

[2] = target: T1, GPpep1
T1 chain: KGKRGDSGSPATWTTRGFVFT

B1: FLAG-tagged recombinant GPBPΔ26 (rGPBPΔ26) (enzyme)
chain: DYKDDDDKMSDNQSWNSSGSEEDPETESGPPVERCGVLSKWTNYIHGWQDRWVVLKNNALSYYKSEDETEYGCRGSICLSKAVITPHDFDECRFDISVNDSVWYLRAQDPDHRQQWIDAIEQHKTESGYGSESSLRRHGSMVSLVSGASGYSATSTSSFKKGHSLREKLAEMETFRDILCRQVDTLQKYFDACADAVSKDELQRDKVVEDDEDDFPTTRSDGDFLHSTNGNKEKLFPHVTPKGINGIDFKGEAITFKATTAGILATLSHCIELMVKREDSWQKRLDKETEKKRRTEEAYKNAMTELKKKSHFGGPDYEEGPNSLINEEEFFDAVEAALDRQDKIEEQSQSEKVRLHWPTSLPSGDAFSSVGTHRFVQKVEEMVQNHMTYSLQDVGGDANWQLVVEEGEMKVYRREVEENGIVLDPLKATHAVKGVTGHEVCNYFWNVDVRNDWETTIENFHVVETLADNAIIIYQTHKRVWPASQRDVLYLSVIRKIPALTENDPETWIVCNFSVDHDSAPLNNRCVRAKINVAMICQTLVSPPEGNQEISRDNILCKITYVANVNPGGWAPASVLRAVAKREYPKFLKRFTSYVQEKTAGKPILF
notes: From pHIL-FLAG-n4'Δ26 in Pichia pastoris, made by deleting the 78-bp exon from pHIL-FLAG-n4'
Which results are given for B1?
binding result [1]: binds; trans-phosphorylation activity with GPpep1 [2]: the reduced in-solution auto- and trans-phosphorylation activities displayed by rGPBPΔ26
